± gives the standard deviation of the averaged measurements.
System: Saccharomyces cerevisiae
Assay: protein stability index of tFT-peptide fusion (C-terminal peptide) (PSI (0-1 scale)); higher = more stable (slower turnover)
Details: genetic background: wild type; temperature: 30 C
Experimental: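 Multiplexed protein stability (MPS) profiling in S. cerevisiae. Random 12-aa peptides (tFT-X12 library) are fused to the C-terminus of a sfGFP-mCherry tandem fluorescent timer, after mCherry and a GGGS linker. Cells are FACS-sorted into 8 mCherry/sfGFP bins and deep-sequenced. The protein stability index (PSI) is the read-weighted bin average, scaled from 0 (unstable) to 1 (stable). Only peptides with >10 reads are reported; cells were grown at 30 °C in SC-His with glucose.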
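Also: PSI is a weighted mean of sequencing reads over stability bins, variants kept only with over 10 reads, mCherry proximal and sfGFP distal, peptide attached via GGGS linker.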

Sequence | protein stability index
WKNGYITGHRYM | 0.66596 ± 0.00041
PVGEGAGELGGG | 0.642 ± 0.034
SRLPIVGYLTLL | 0.56 ± 0.036
QGDDNVVGAMNI | 0.628 ± 0.089
GGLICRHGGGRG | 0.706 ± 0.02
RKLKNKTKREII | 0.653 ± 0.0068
LGGGGVGVGSLV | 0.679 ± 0.014
MLPTPSPPRPPF | 0.698 ± 0.021
NIHKNKKKGLKE | 0.686 ± 0.0088
RYGTGQLDYCFI | 0.717 ± 0.018
EKQIREERRKIE | 0.704 ± 0.062
CFGYRGAPFCGQ | 0.669 ± 0.063
AETPRGDTRLHE | 0.699 ± 0.021
CFGSRMGVVGFC | 0.726 ± 0.065
AAWSITFEVLSI | 0.59 ± 0.026
YCFRFGLLIFGD | 0.548 ± 0.01
GGVLGPEVCVGG | 0.693 ± 0.047
RPPPPPPPRFPP | 0.706 ± 0.041
EVFGLWQGCFVW | 0.728 ± 0.058
LLPLAPVCVIIL | 0.54 ± 0.041
ALLPPRPPSPLP | 0.692 ± 0.016
RTPQPQPVVVRR | 0.776 ± 0.041
PPHAPTRTTSGP | 0.6388 ± 0.0013
AGPPSPPLHPVG | 0.696 ± 0.026
APSGPFLFIMNA | 0.663 ± 0.047

Sequence | protein stability index
PPPPPPPPVPLL | 0.708 ± 0.017
NNLSPLPGPSLI | 0.713 ± 0.018
GLSLSLLSSLFV | 0.71 ± 0.02
PHAAERRKPCAP | 0.768 ± 0.011
FCWSFGVLLSFS | 0.559 ± 0.0099
LVVVRTGPPRWY | 0.669 ± 0.0073
SSLPASPAPPHL | 0.702 ± 0.066
SSYFCESWMFDL | 0.756 ± 0.023
IRKKNKEKIKNQ | 0.691 ± 0.25
FYPSRVPPLQSA | 0.662 ± 0.056
GGFTSIRLTHLS | 0.698 ± 0.043
ALGNFPLGASVS | 0.676 ± 0.035
GSAVLFEFTLKM | 0.651 ± 0.053
YTQVSSRGINID | 0.734 ± 0.029
SEIRIQTFETGG | 0.671 ± 0.061
FFSVCLVFGLPG | 0.543 ± 0.013
GLYDGSRLVKLE | 0.736 ± 0.039
RRTGGEDKHARP | 0.67 ± 0.02
YSTFPPRIPRPP | 0.524 ± 0.011
SRLFEFFISRNV | 0.706 ± 0.013
APITPNPLYLNH | 0.697 ± 0.055
DRKDGVSVSVGY | 0.675 ± 0.05
RGPKDNGGSETS | 0.713 ± 0.078
LWGPGGVWGRGR | 0.697 ± 0.05
PPPSQPTSPPPP | 0.732 ± 0.067

Sequence | protein stability index
LRGVDYEQMSDP | 0.667 ± 0.11
YNGVGGLKPEPC | 0.658 ± 0.049
GRTAEKGHPPRG | 0.7 ± 0.073
ATPPHLLPAPLA | 0.656 ± 0.011
LSPVSPRPLLPV | 0.773 ± 0.12
IGLRKGVGIMRP | 0.637 ± 0.12
GLSFITAGGLVF | 0.688 ± 0.052
CLAGLGPADFGM | 0.674 ± 0.057
ASLPDHYPGPKI | 0.759 ± 0.27
PPRGFDPSFQTV | 0.7 ± 0.18
APVEVYRHAEAS | 0.67 ± 0.035
NLRGPEYVKRTD | 0.677 ± 0.021
KKKKKKKKKKQN | 0.62 ± 0.039
SHPRHSHLPFSP | 0.725 ± 0.079
SAWVGVGHGRVS | 0.6113 ± 0.0056
FSHPCPLSGLYP | 0.716 ± 0.015
PPRPPRFFLLPP | 0.6586 ± 0.0061
APPPLPSLPPSP | 0.701 ± 0.017
SNQKLLGQDIDN | 0.659 ± 0.024
LSIGDLTIEKKL | 0.686 ± 0.022
FPHSPPFRLPLS | 0.759 ± 0.089
INKNKKKEKLTK | 0.697 ± 0.015
GGRCGREGGAER | 0.61 ± 0.054
VVDGGEHVCYRI | 0.654 ± 0.082
TYACRQEWRESR | 0.731 ± 0.041

Sequence | protein stability index
RRERKARREAPR | 0.682 ± 0.042
GILFFPSGGISP | 0.805 ± 0.12
PPPHPTLSPLVP | 0.676 ± 0.013
VFGKGRWDCFLI | 0.727 ± 0.073
KKKKQKKKYKKT | 0.695 ± 0.095
KKKKKKKKKNEK | 0.755 ± 0.024
GGVWFSCSSAFS | 0.871 ± 0.075
LAVVGGVEKKYH | 0.676 ± 0.055
SMVGCVKTPIEQ | 0.659 ± 0.023
HPPPPPSPPGLP | 0.6578 ± 0.0013
ACRSGTRFAGIW | 0.703 ± 0.016
AFCKTGSAGVGI | 0.634 ± 0.046
NWAPRCCIGNII | 0.669 ± 0.12
AGPGGAPVRWCR | 0.723 ± 0.037
PTRRQEVPPEPT | 0.636 ± 0.058
SPLHLFHPPLLH | 0.729 ± 0.023
PPLYPGSKVQLL | 0.672 ± 0.011
GVEGASVLGWGR | 0.704 ± 0.19
GEEGRNEQKQDA | 0.7249 ± 0.0011
RIGYGEGWKKGG | 0.695 ± 0.067
GMSRVSDRRWGS | 0.681 ± 0.013
YRDTVYKVRYSN | 0.537 ± 0.015
FQCLPHGFYFGA | 0.661 ± 0.0098
CGAALCSWEVVV | 0.627 ± 0.018
VGRVGEGGGGRG | 0.679 ± 0.046

Sequence | protein stability index
MFVTQTGNRCKA | 0.668 ± 0.018
IAKLLHSPSTFT | 0.688 ± 0.014
NPVYSFRAHRLG | 0.5128 ± 0.0037
PPPPPACRLCFF | 0.634 ± 0.1
DLLCLWEFPSIP | 0.731 ± 0.12
CFPLSPSCIFLR | 0.464 ± 0.077
VHSSWRVAACGK | 0.698 ± 0.031
VSLGHCGFYSRV | 0.648 ± 0.039
PPTPAAPGLPPA | 0.677 ± 0.035
HAVRQNDTYKHG | 0.74 ± 0.087
SPPALPPFLAPL | 0.72 ± 0.1
PPAPPHALPPGP | 0.671 ± 0.033
GWVHGEDMAVFG | 0.7 ± 0.0049
PCIRRRSISTLP | 0.775 ± 0.11
SFPRPPSSPSPL | 0.714 ± 0.021
PPLVHHSTLPPA | 0.679 ± 0.022
YPRPLSLSFLSL | 0.73 ± 0.048
SPPLVFPTLLPL | 0.7101 ± 0.0029
FKKTSRHTINRK | 0.757 ± 0.023
PTPPPLTPPPCF | 0.678 ± 0.014
KNMKTEDLLIVN | 0.727 ± 0.022
LVRFTDPIPQQA | 0.615 ± 0.026
RTEATFKTTPVG | 0.687 ± 0.013
PFPPPPRLHLPP | 0.648 ± 0.04
LKKMIGPLRAGE | 0.686 ± 0.076

Sequence | protein stability index
SLQEIWRSKAKV | 0.676 ± 0.054
PLFHLYRSSFPF | 0.721 ± 0.029
RRLVLPFSRLLR | 0.656 ± 0.019
FLSYPFLSRPFL | 0.804 ± 0.058
LSPASPGPFLSC | 0.72 ± 0.022
PHSKADISQIGG | 0.653 ± 0.0072
GGGARPTLDRAR | 0.637 ± 0.028
KTLRRGYDWLQG | 0.681 ± 0.038
GTVRGVVRGRGG | 0.664 ± 0.012
PPPPPPPCFFPP | 0.715 ± 0.048
VAGFYCQKWFSI | 0.657 ± 0.08
KKQAVRVEIIGR | 0.655 ± 0.018
SLLPPRLPPPPF | 0.633 ± 0.016
GASPRAYPLPPP | 0.707 ± 0.032
GLPLPTPLLPSP | 0.723 ± 0.01
TCLDVFACYASF | 0.666 ± 0.017
APPPRATLPRPP | 0.673 ± 0.055
PPLPPPCPLPRN | 0.7711 ± 0.0013
RPLLHPRTGRSH | 0.677 ± 0.014
GLAASAFAVEEV | 0.711 ± 0.099
GKKKKRIDTKYK | 0.713 ± 0.15

Source: the supplement of paper PMC10724198
